In US20150175665A1 (IPSEN PHARMA S A S, published 2015):
[ ]: non-standard residue; d: D form. The star is where a group is joined. Desaminotyrosyl = O=C(CCc1ccc(O)cc1)*; Hyp = O=C(O)[C@@H]1C[C@@H](O)CN1; Pip = O=C(O)[C@@H]1CCCCN1; Ac6c = NC1(C(=O)O)CCCCC1

T1: human recombinant GIP receptor (human, UniProt P48546 22-466)
T1 construct: whole, on cells; Assayed as washed membranes of CHO-K1 cells expressing the receptor; also called hGIP receptor
T1 sequence (looked up): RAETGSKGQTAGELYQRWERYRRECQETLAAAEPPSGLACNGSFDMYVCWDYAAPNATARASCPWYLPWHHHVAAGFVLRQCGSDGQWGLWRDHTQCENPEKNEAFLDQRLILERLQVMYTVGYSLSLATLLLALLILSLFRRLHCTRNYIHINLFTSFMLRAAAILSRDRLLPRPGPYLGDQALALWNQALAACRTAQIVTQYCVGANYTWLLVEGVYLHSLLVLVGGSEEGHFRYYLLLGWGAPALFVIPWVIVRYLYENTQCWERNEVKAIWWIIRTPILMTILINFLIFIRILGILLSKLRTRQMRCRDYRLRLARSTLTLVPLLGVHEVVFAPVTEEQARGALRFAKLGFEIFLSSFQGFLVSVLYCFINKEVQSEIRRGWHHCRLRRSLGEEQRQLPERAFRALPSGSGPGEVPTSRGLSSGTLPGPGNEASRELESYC


Target: T1, human recombinant GIP receptor
Assay: displacement of [125I]GIP, membranes of CHO-K1 cells expressing human GIP receptor
Description: Membranes for in vitro receptor binding assays were prepared by homogenizing the CHO—K1 clonal cells expressing the human recombinant GIP receptor, with a Brinkman Polytron (setting 6, 15 sec), in ice-cold 50 mM Tris-HCl and then subjected to two centrifugations at 39,000 g for 10 minutes, with a resuspension in fresh buffer in between. For the assay, aliquots of the washed membrane preparations were incubated (100 minutes at 25° C. with 0.05 nM [¹²⁵1]GIP (2200 Ci/mmol) in 50 mM Tris-HCl, 0.1 mg/ml bacitracin, and 0.1% BSA. The final assay volume was 0.5 ml. The incubations were terminated by rapid filtration through GF/C filters (pre-soaked in 0.5% polyethylenimine) using a Brandel filtration manifold. Each tube and filter were then washed three times with 5-ml aliquots of ice-cold buffer.
Specific binding was defined as the total radioligand bound minus that bound in the presence of 1000 nM GIP.

| Binder | Ki |
| --- | --- |
| XXEGTFISDYXIAMDKIHQQDFVNWLLAQK (4Hppa at 1; Aib at 2 and 11; C-terminal amide) [(4Hppa^1, Aib^2, 11)hGIP(1-30)-NH2] | 15.4 nM |
| YXEGTFISDYXIAXDKIHQQDFVNWLLAQKGKKNDWKHNITQH (3Br-Tyr at 1; Aib at 2; A5c at 11 and 14) [(3Br-Tyr^1, Aib^2, A5c^11, 14, His^43)hGIP(1-43)-OH] | 0.92 nM |
| XXEGTFISDYXIAMDKIHQQDFVNWLLAQKGKKNDWKHNITQH (3MeO-Tyr at 1; Aib at 2; A5c at 11) [(3MeO-Tyr^1, Aib^2, A5c^11, His^43)hGIP(1-43)-OH] | 3.9 nM |
| XXEGTFISDYXIAXDKIHQQDFVNWLLAQKGKKNDWKHNITQH (3MeO-Tyr at 1; Aib at 2; A5c at 11 and 14) [(3MeO-Tyr^1, Aib^2, A5c^11, 14, His^43)hGIP(1-43)-OH] | 9.34 nM |
| XXEGTFISDYXIAXDKIHQQDFVNWLLAQKGKKNDWKHNIXQH (3MeO-Tyr at 1; Aib at 2; A5c at 11, 14 and 41) [(3MeO-Tyr^1, Aib^2, A5c^11, 14, 41-His^43)hGIP(1-43)-OH] | 6.4 nM |
| XXEGTFISDYXIAMDKIHQQDFVNWLLAQKGKKNDWKHNITQH (7HO-Tic at 1; Aib at 2; A5c at 11) [(7HO-Tic^1, Aib^2, A5c^11, His^43)hGIP(1-43)-OH] | 4.82 nM |
| FXEGTFISDYXIAMDKIHQQDFVNWLLAQKGKKNDWKHNITQH (4CN-Phe at 1; Aib at 2; A5c at 11) [(4CN-Phe^1, Aib^2, A5c^11, His^43)hGIP(1-43)-OH] | 5.12 nM |
| XXEGTFISDYXIAMDKIHQQDFVNWLLAQKGKKNDWKHNITQH (hTyr at 1; Aib at 2; A5c at 11) [(hTyr^1, Aib^2, A5c^11, His^43)hGIP(1-43)-OH] | 9.42 nM |
| XXEGTFISDYSIAXDKIHQQDFVNWLLAQK (4Hppa at 1; Aib at 2; Nle at 14; C-terminal amide) [(4Hppa^1, Aib^2, Nle^14)hGIP(1-30)-NH2] | 2.95 nM |
| XXEGTFISDYSIAMDKIHQQDFVNWLLAQK (4Hppa at 1; Aib at 2; C-terminal amide) [(4Hppa^1, Aib^2)hGIP(1-30)-NH2] | 1.58 nM |
| [Desaminotyrosyl]A[Hyp]GTF[Ac6c]SDYSIAMDKIHQQDFVNWLLAQKGKKNDWKHNITQ-OH [(4Hppa^1, 4Hyp^3, A6c^7)hGIP(1-42)-OH] | 251 nM |
| [Desaminotyrosyl]A[Pip]GTF[Ac6c]SDYSIAMDKIHQQDFVNWLLAQKGKKNDWKHNITQ-OH [(4Hppa^1, hPro^3, A6c^7)hGIP(1-42)-OH] | 707 nM |
